Measurements as given in publication PMC3813556, “Probing the Dynamic Process of Encapsulation in Escherichia coli GroEL” (PLoS ONE, 2013).

How the values were obtained:
[1] = molecular target: GroEL SR-1 RW (E. coli) (UniProt P0A6F5); assay: FRET or BRET; stopped-flow intermolecular FRET from the apical domain tryptophan of the GroEL mutant to prebound acid-unfolded AEDANS-GroELwt (equimolar); decrease of FRET after addition of ATP and GroES
[2] = molecular target: T1, GroEL R231W (E. coli, UniProt P0A6F5 1-548, R231W); assay: stopped-flow tryptophan fluorescence; GroEL with prebound Gdn-HCl-unfolded MDH (5 min pre-incubation at 25°C); 0.625 µM GroEL oligomer; 1 mM ATP without or with equimolar GroES; details: both partners purified
T1 construct: GroEL, E. coli, with a unique tryptophan in the apical domain; Double ring 14-mer; copies: 14

Molecule | k of PhaseFRET2 (rate of release of the bound unfolded protein) [1] [s⁻¹] | k of PhaseFRET (rate of release of the bound unfolded protein) [1] [s⁻¹] | binding result [2]
AEDANS-labelled, acid-unfolded wild type GroEL (from UniProt P0A6F5 1-548) (natural protein) | 0.21 | 4.1 | 
GroES (natural protein, E. coli, UniProt P0A6F9 1-97, looked up, GroES, co-chaperonin of the E. coli chaperonin GroE; also called wild type GroES; co-chaperonin GroES) MNIRPLHDRVIVKRKEVETKSAGGIVLTGSAAAKSTRGEVLAVGNGRILENGEVKPLDVKVGDIVIFNDGYGVKSEKIDNEEVLIMSESDILAIVEA |  |  | binds
